Measurements from patent publication US20190367612A1 (Daiichi Sankyo, published 2019).
Where a chain is given by its changes, count along the chain named. Blank lines part the entries; values can stand above or below the binder they belong to.

Experiments:
[1] = target: T1, amino-terminal peptide of cynomolgus monkey GPRC5D …(Biotin)-NH2 (cynomolgus monkey, C-terminal lysine carrying biotin, C-terminal amide); test: ELISA, chemiluminescence: biotinylated amino-terminal peptide of cynomolgus monkey GPRC5D on NeutrAvidin, culture supernatant of IgG-expressing cells (one concentration, not given), HRP anti-human Fab detection
T1 construct: also called amino-terminal peptide of biotinylated cynomolgus monkey GPRC5D
T1 peptide: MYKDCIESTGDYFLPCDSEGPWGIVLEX
Experimental: (§1) NeutrAvidin diluted to 1 μg/mL with PBS was added in an amount of 50 μL/well to 96-well Maxi-sorp plate, and the plate was left standing overnight at 4° C. for immobilization. After washing three times with an ELISA buffer, the amino-terminal peptide of the biotinylated human or cynomolgus monkey GPRC5D (used in Example 10)-1) diluted to 1 μg/mL with PBS was added thereto, and the plate was shaken at room temperature for 1 hour. After washing three times with an ELISA buffer, the plate was blocked with Blocker Casein and washed three times with an ELISA buffer. Then, the culture solution of the IgG-expressing FreeStyle 293F cells was added to the plate and reacted at room temperature for 2 hours. After washing three times with an ELISA buffer, a horseradish peroxidase (HRP)-labeled anti-human Fab antibody (Jackson ImmunoResearch Laboratories, Inc.) diluted 2500-fold with ELISA buffer was added thereto in an amount of 50 μL/well and reacted at room temperature for 1 hour. After washing five times with an ELISA buffer, SuperSignal Pico ELISA Chemiluminescent substrate was added. After 10 minutes, the chemiluminescence was measured using a plate reader.

human GPRC5D [2] = target: T2, human GPRC5D (human, UniProt Q9NZD1 1-345); test: flow cytometry on KHM-1B cells (human GPRC5D), PE anti-human IgG Fc detection, rMFI = MFI minus isotype control
T2 construct: whole, on cells; also called hGPRC5D; G-protein coupled receptor family C group 5 member D
Experimental: Human multiple myeloma cell line KHM-1B cells expressing GPRC5D were adjusted to a concentration of 2×10⁶ cells/mL with PBS containing 5% FBS, inoculated in an amount of 100 μL/well to a 96-well U-bottomed microplate, and centrifuged to remove the supernatant. The culture supernatant of each human anti-GPRC5D antibody (full-length IgG form containing C2037, C3048, C3015, or C3022) obtained in Example 10)-5 or Human IgG isotype control antibody (Calbiochem/Merck Millipore Corp.) adjusted to 14 ng/mL to 30 μg/mL was added thereto in an amount of 100 μL/well, and the plate was left standing at 4° C. for 1 hour. The cells were washed twice with PBS containing 5% FBS. Then, R-Phycoerythrin AffiniPure F(ab′)2 Fragment Goat Anti-Human IgG, Fcγ Fragment Specific (Jackson ImmunoResearch Laboratories, Inc.) diluted 100-fold with PBS containing 5% FBS was added thereto in an amount of 100 μL/well, and the plate was left standing at 4° C. for 1 hour. The cells were washed twice with PBS containing 5% FBS and then resuspended in PBS containing 5% FBS, followed by detection using a flow cytometer (FACSCanto™ II; Becton, Dickinson and Company). The data was analyzed using Flowjo (Tree Star, Inc.). The PE fluorescence intensity of the cell fraction was plotted to a histogram, and the mean fluorescence intensity (MFI) was calculated. The MFI value of the control antibody was subtracted from the MFI value of the GPRC5D antibody to calculate a relative value of MFI (rMFI).

[3] = target: T3, human GPRC5D amino-terminal peptide MYKDCIESTGDYFLLCDAEGPWGIILE-K(Biotin)-NH2, having an intramolecular … (human, C-terminal lysine carrying biotin, C-terminal amide; intramolecularly formed disulfide bond); test: ELISA, chemiluminescence: biotinylated amino-terminal peptide of human GPRC5D on NeutrAvidin, culture supernatant of IgG-expressing cells (one concentration, not given), HRP anti-human Fab detection
T3 construct: Peptide Institute synthetic peptide; also called amino-terminal peptide of biotinylated human GPRC5D (disulfide bond present)
T3 peptide: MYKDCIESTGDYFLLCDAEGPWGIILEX
Experimental: as §1

[4] = target: T3, human GPRC5D amino-terminal peptide …; test: SPR (Biacore T200), kinetic analysis: biotinylated amino-terminal peptide of human GPRC5D on Sensor Chip CAP, scFv as analyte
Experimental: The binding activity of the anti-GPRC5D antibodies against the amino-terminal peptide of human GPRC5D was tested by SPR using Biacore T200. The amino-terminal peptide of biotinylated human GPRC5D diluted to 2 nM with HBS-EP+ (manufactured by GE Healthcare Bio-Sciences Corp.) was immobilized on Sensor Chip CAP (manufactured by GE Healthcare Bio-Sciences Corp.) by contact at a rate of 10 μL/min for 180 seconds. Then, Kd was calculated by kinetic analysis using a plurality of concentrations of each scFv diluted with HBS-EP+ as analytes.

[5] = target: T1, amino-terminal peptide of cynomolgus …; test: ELISA, chemiluminescence: biotinylated amino-terminal peptide of cynomolgus monkey GPRC5D on NeutrAvidin, scFv detected with HRP anti-FLAG antibody
Experimental: NeutrAvidin diluted to 1 μg/mL with PBS was added in an amount of 50 μL/well to 96-well Maxi-sorp plate (Black, Nunc/Thermo Fisher Scientific Inc.), and the plate was left standing overnight at 4° C. for immobilization. After washing three times with an ELISA buffer, the amino-terminal peptide of the biotinylated human or cynomolgus monkey GPRC5D (used in Example 10)-1) diluted to 1 μg/mL with PBS was added thereto, and the plate was shaken at room temperature for 1 hour. After washing three times with an ELISA buffer, the plate was blocked with Blocker Casein and washed three times with an ELISA buffer. Then, the C2037, C3048, C3015, or C3022 scFv was added to the plate and reacted at room temperature for 2 hours. After washing three times with an ELISA buffer, a horseradish peroxidase (HRP)-labeled anti-FLAG antibody diluted 5000-fold with an ELISA buffer was added thereto in an amount of 50 μL/well and reacted at room temperature for 1 hour. After washing five times with an ELISA buffer, SuperSignal Pico ELISA Chemiluminescent substrate was added. After 10 minutes, the chemiluminescence was measured using a plate reader.

human GPRC5D [6] = target: T2, human GPRC5D; test: flow cytometry on KMS-34 cells (endogenous human GPRC5D), anti-FLAG antibody and Alexa 488 anti-mouse IgG detection
Experimental: The KMS-34 cells were recovered by centrifugation, washed twice with a FACS buffer (PBS containing 0.5% BSA and 2 mM EDTA, pH 7.4), and then suspended in the same solution as above. The C2037, C3048, C3015 or C3022 scFv was added to the obtained cell suspension, and the mixture was left standing at 4° C. for 2 hours. After washing twice with a FACS buffer, the cells were suspended by the addition of an anti-FLAG antibody (Sigma-Aldrich Corp.), and the mixture was further left standing at 4° C. for 1 hour. After washing twice with a FACS buffer, the cells were suspended by the addition of Alexa 488-labeled anti-mouse IgG antibody (Jackson ImmunoResearch Laboratories, Inc.), and the mixture was further left standing at 4° C. for 1 hour. After washing twice with a FACS buffer, the cells were fixed in 1% PFA (prepared from a 32% paraformaldehyde solution (Electron Microscopy Sciences)), followed by detection using a flow cytometer (FACSCanto™ II; Becton, Dickinson and Company). The data was analyzed using Flowjo (Tree Star, Inc.).

mouse GPRC5D = target: T4, mouse GPRC5D (mouse, UniProt Q9JIL6 1-344); test: flow cytometry, in the same way as in Example 5)-2
T4 construct: whole, on cells
T4 sequence (looked up): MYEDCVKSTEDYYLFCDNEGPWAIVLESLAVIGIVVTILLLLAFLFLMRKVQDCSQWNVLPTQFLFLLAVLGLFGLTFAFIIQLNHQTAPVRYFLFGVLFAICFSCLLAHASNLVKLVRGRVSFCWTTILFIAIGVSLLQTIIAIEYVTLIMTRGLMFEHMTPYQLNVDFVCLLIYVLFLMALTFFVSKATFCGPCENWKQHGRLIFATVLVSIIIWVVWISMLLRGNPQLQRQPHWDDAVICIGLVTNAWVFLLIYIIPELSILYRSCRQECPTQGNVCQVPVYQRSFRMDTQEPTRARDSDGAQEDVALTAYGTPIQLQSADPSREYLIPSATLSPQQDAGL

Kd [4]: 95 nM | binding result [5]: binds | binding result (human GPRC5D [6]): binds
B3: human antibody C3022 scFv (scFv)
scFv: QVQLVQSGAEVKKPGASVKVSCKASGYTFTGYYMHWVRQAPGQGLEWMGRINPNSGGTNYAQKFQGRVTMTRDTSISTAYMELSGLRSDDTAVYYCASGSVRHPWGQGTLVTVSSGGGGSGGGGSGGGGSQPVLTQPPSASGTPGQRVTISCSGSRSNIGGNIVSWYQQFPGTAPRLLTYADNQRPSGVPDRFSGSKSGTSASLAISGLQSEDEADYYCAAWDDSLNGVVFGGGTKLTVL
notes: also called C3022 antibody scFv; not shown: FLAG and His tags at the carboxyl terminus

binding result (mouse GPRC5D): no binding
B5: human chimeric 7B4 (antibody, human IgG1, V domains shown)
VH: EIHLQESGPGLVKPSQSLSLTCSVTGYTITSGYDWSWIRKFPGNKMEWMAYMSYRGSTNYNPSLKSRISITRDTSKNQFFLQLNSVTTEDTATYYCALTRTYWYNYYYVLDAWGQGASVTVSS
VL: DIQMTQSPSFLSASVGERVTLSCKASQNINKYLDWYQQKLGEPPKLLIYNTNNLHTGIPSRFSGSGSGTDYTLTISGLQPEDVATYFCLQRNSWYTFGAGTKLELKR
notes: Human IgG1 / kappa constant regions

binding result (mouse GPRC5D): no binding
B7: human chimeric 2A4 (antibody, human IgG1, V domains shown)
VH: QVQLQQSGAELAKPGTSVKLSCKASGYTFTSYYIYWVKQRPGQGLEWIGYVYPGYGGTYYSDKFKGKATFTADTSSSTAYMLLGSLTPEDSAYYFCARRKGIIRGPGYFDYWGQGVMVTVSS
VL: DIQMTQSPASLSASLGETVSIECLASEGISNSLAWYQQKPGKSPQLLIYGASSLQDGVPSRFSGSGSGTQYSLKISGMQPEDEGLYYCQQGYKYPPTFGGGTKLELKR
notes: as for B5

Continued, binder first:

B1: IgG form of the human antibody C3048 (antibody, V domains shown)
VH: QVQLVQSGAEVKKPGSSVKVSCKASGGTFSRYAISWVRQAPGQGLEWMGGIIPIFGTANYAQKFQGRVTITADQSTRTAYMDLGRLRSEDTAVYYCALEGFRDSLKRNPFDIWGQGTMVTVSS
VL: QSVVTQPPSVSAAPGQKVTISCSGGTTNIGSNYVSWYQQLPGTAPKFLMYENNKRPSGIPDRFSGSKSGTSATLAITGLQTGDEATYYCSTWDSSLNTGLFGGGTKLTVLG
notes: Human IgG1; also called C3048 IgG form; full-length IgG form containing C3048
binding result [1]: binds | EC50 (read off the curve) (human GPRC5D [2]): 7 to 8 nM | binding result [3]: binds

B2: IgG form of the human antibody C3022 (antibody, V domains shown)
VH: QVQLVQSGAEVKKPGASVKVSCKASGYTFTGYYMHWVRQAPGQGLEWMGRINPNSGGTNYAQKFQGRVTMTRDTSISTAYMELSGLRSDDTAVYYCASGSVRHPWGQGTLVTVSS
VL: QPVLTQPPSASGTPGQRVTISCSGSRSNIGGNIVSWYQQFPGTAPRLLTYADNQRPSGVPDRFSGSKSGTSASLAISGLQSEDEADYYCAAWDDSLNGVVFGGGTKLTVLG
notes: Human IgG1; also called C3022 IgG form; full-length IgG form containing C3022
binding result [1]: binds | binding result (human GPRC5D [2]): binds | binding result [3]: binds

B4: E1018 scFv (high binding mutant of C3022) (scFv)
chain: B3 scFv with A97K, H103P, A181R, D182N, N183T, Q184R, N227G
Kd [4]: 0.0032 nM

B6: IgG form of the human antibody C2037 (antibody, V domains shown)
VH: not shown
VL: QPVLTQPPSASGTPGQRVTISCSGSNSNIGSRTVNWYQHLPGTAPRLLIYGNNQWPSGVPDRFSGSKSGSSASLAISGLRSEDEADYYCAAWDDSLSGVVFGGGTKLTVLG
notes: Human IgG1; also called C2037 IgG form; full-length IgG form containing C2037
binding result [1]: binds | EC50 (read off the curve) (human GPRC5D [2]): ~8 nM | binding result [3]: binds
